Here are results for 3 molecules from publication PMC11106768, “Synthetic Vesicles for Sustainable Energy Recycling and Delivery of Building Blocks for Lipid Biosynthesis” (ACS Synthetic Biology, 2024).

Series [1] has as its target T1, E. coli GlpT (Escherichia coli, UniProt P08194).
T1 construct: plasmid pBADmycHisB-glpT, expressed in E. coli MC1061, Ni-Sepharose and size exclusion in DDM, coreconstituted with L. sakei ArcD in vesicles; 54 kDa
T1 sequence (P08194 1-452): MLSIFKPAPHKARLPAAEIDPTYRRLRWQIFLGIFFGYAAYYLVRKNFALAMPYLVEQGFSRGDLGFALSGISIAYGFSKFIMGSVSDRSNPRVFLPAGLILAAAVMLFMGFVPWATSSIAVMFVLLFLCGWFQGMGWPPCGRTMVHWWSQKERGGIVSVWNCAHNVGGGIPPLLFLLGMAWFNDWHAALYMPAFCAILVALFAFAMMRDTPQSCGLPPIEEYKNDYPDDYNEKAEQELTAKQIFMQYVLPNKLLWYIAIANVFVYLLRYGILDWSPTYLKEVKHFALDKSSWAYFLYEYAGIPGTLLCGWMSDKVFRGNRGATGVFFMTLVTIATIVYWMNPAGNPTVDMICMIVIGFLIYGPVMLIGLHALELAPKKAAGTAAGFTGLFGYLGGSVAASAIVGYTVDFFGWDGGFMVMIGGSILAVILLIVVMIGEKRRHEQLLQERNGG
The series can be described thus: GlpT-dependent export from feeder vesicles, read by LC-MS of DOPA formed in utilizer vesicles. The series is classed as biochemical. Conditions: antiport with external Pi, 50 mM KPi pH 7.0, 30 °C; indirect read-out.

Substrate in series [2]: N=C(N)NCCC[C@H](N)C(=O)O
The series can be described thus: cells, lysate or membranes. Conditions: pH 7.0; 20.0 °C.

Substrate in series [3]: N=C(N)NCCC[C@H](N)C(=O)O
Put plainly: cells, lysate or membranes. Set-up: species or system L. lactis JP9000 ΔarcD1ΔarcD2; Radiolabeled L-arginine uptake in L-ornithine-loaded whole cells, filtration and scintillation counting. Particulars: pH 7.0; 20.0 °C. As to the method:
The arcD and arcE genes were cloned into nisin A-based expression vectors and flanked by a 10× His-tag at either the N- or the C-terminus. The constructs were transformed into L. lactis JP9000 ΔarcD1ΔarcD2[24] and the expression was optimized. […] All of these proteins were tested for L-arginine transport activity in vivo (Figure S4). […] By assuming a similar level of expression as the original ArcD2, ArcD from L. sakei would have a 10-fold higher turnover number and was therefore chosen for further in vitro characterization (Table S4). The genes encoding arcD/E were PCR-amplified from the source DNA templates with Phusion high-fidelity DNA polymerase (Thermo Fisher Scientific) and customized primers (Eurofins Genomics, Table S3). Next, fragment exchange (FX)[36] was exploited to clone the genes of interest into pNZ-N(His) or pNZ-C(His) vectors suitable for overexpression in L. lactis strains. According to the procedure, the PCR amplification products were first cloned into a sequencing vector (pINITIAL). To this end, both the insets and the backbone (1:5 molar ratio) were digested with 2.5 U of SapI (New England Biolabs) for 1 h at 37 °C, followed by a heat inactivation step at 60 °C for 20 min. Ligation was carried out by adding 5 U of T4 ligase (New England Biolabs) and incubating for 1 h at RT. […]

Substrate in series [4]: N=C(N)NCCC[C@H](N)C(=O)O
The series can be described thus: radiolabelled uptake into L-ornithine-loaded proteoliposomes, Michaelis-Menten fit. The series is classed as biochemical, Latilactobacillus sakei. Particulars: 50 mM KPi pH 7.0, 2 mM DTT, 30 °C, internal L-ornithine 10 mM, external L-arginine 1-100 μM, labelled compound. The procedure: radiolabelled uptake into L-ornithine-loaded proteoliposomes, Michaelis-Menten fit on L. sakei ArcD | the affinity constant (KM) and turnover number (kcat) were determined for the L. sakei antiporter

Regarding `O=P(O)(O)OC[C@H](O)CO` [glycerol 3-phosphate], in series [1], the “GlpT-dependent export from feeder vesicles, read by LC-MS of DOPA formed in util” value is “only when the feeder vesicles were equipped with the glycerol 3-phosphate exporter GlpT”.

B1: P. aeruginosa ArcD (Pseudomonas aeruginosa PAO1) (protein)
chain: MSQESSQKLRLGALTALVVGSMIGGGIFSLPQNMAASADVGAVLIGWAITAVGMLTLAFVFQTLANRKPELDGGVYAYAKAGFGDYMGFSSAWGYWISAWLGNVGYFVLLFSTLGYFFPIFGKGDTVAAIVCASVLLWALHFLVLRGIKEAAFINTVTTVAKVVPLFLFILICLFAFKLDIFTADIWGKSNPDLGSVMNQVRNMMLVTVWVFIGIEGASIFSSRAEKRSDVGKATVIGFITVLLLLVLVNVLSMGVMTQPELAKLQNPSMALVLEHVVGHWGAVLISVGLLISLLGALLSWVLLCAEIMFAAAKDHTMPEFLRRENANQVPANALWLTNICVQVFLVVVFFTSGDPDGMDPYTKMLLLATSMILIPYFWSAAYGLLLTLKGETYENDARERSKDLVIAGIAVAYAVWLLYAGGLKYLLLSALLYAPGAILFAKAKHEVGQPIFTGIEKLIFAAVVIGALVAAYGLYDGFLTL
Turning to B1, in series [2], the Km is 7.5 µM.

B2: L. sakei ArcD (Latilactobacillus sakei) (protein)
chain: MTEEKPAKKIGLLALIALVISSSIGSGVFGLTSDLASASAPGPVLIAWVIVGFGILMLALSLNNLLMKEPELEGIFSYAEKGFGPFAGFISGWGYWLSAWLGNVTFATILMSALGYFFPIFKSRQNLPSILVASVLSWSLTYFVNRGVEGAAAINTLVTICKLIPLFVFIIFGIVLFKGHLFTQAFWNNMSSSFVAGDVMSQIKNCMMVMMWVFVGIEGASMLSARAEKKSDAGKATILGLVSLLAIYILASVLPYGYLTQDQLASIKQPAMLYIFEQMVGTWGGYFIGVGLIISILGAWLSWTMLPAETMLLMAKQNLLPAYFGRVNKKKAPTFALVVTAGLIQVFLFTLLFTTKAYNFAYSLCTASIIVCYMLVAAYQIKYSWAHLQEKGNRQQLLIGVLALLFEIAGILMAGVSYLLLCFIAYIPGIYFYGRARKNNGHQHFLSKGEWLITTIIVIGAIIGIWLVVSGKIVI
notes: N-terminal 10x His-tag (plasmid pNZarcD-LS), expressed in L. lactis JP9000 delta-arcD1 delta-arcD2, purified in DDM, reconstituted in DOPE/DOPG/DOPC liposomes; 54 kDa
On to B2, for which the Michaelis-Menten constant (Km) in series [3] amounted to 26.8 µM. Besides, in series [4], the Km turned out to be 12.2 ± 1.5 µM and the catalytic constant (kcat) came out at 5.8 ± 1.2 s⁻¹.

For orientation: Km means the substrate concentration at which the rate is half of its maximum. In general, kcat refers to the maximal rate divided by the concentration of active sites.
